# Like-named read-outs stand apart in the source and are kept apart here.
# What was measured:
# PD-L1-ECD = PD-L1-ECD (UniProt Q9NZQ7); assay: BLI
# CD16a-ECD (human) [1] = target: CD16a-ECD (human) (UniProt P08637)
# CD16a-ECD (human) [2] = target: CD16a-ECD (human) (UniProt P08637); assay: BLI
# CD16a-ECD (human), sequence (P08637 17-208): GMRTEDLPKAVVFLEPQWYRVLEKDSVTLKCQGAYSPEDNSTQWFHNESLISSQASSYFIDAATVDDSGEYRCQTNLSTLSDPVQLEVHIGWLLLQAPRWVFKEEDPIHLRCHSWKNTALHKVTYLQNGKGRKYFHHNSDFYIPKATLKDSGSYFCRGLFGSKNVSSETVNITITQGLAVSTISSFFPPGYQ
# PD-L1-ECD, sequence (Q9NZQ7 19-238): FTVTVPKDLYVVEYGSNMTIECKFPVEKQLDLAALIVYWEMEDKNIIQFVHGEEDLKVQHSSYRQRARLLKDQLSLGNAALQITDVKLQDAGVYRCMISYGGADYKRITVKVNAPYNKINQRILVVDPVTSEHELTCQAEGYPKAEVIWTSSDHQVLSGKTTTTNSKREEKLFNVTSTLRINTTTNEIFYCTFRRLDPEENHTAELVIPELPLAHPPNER
substance,measurement,setting,value
ICI12 (from UniProt P01857),Kd,PD-L1-ECD,5.8 nM
ICI13 (from UniProt P01857),Kd,PD-L1-ECD,3.2 nM
bispecific hdFEB4-1-4×hNKE14-8 (bispecific antibody),"EC50 of the ADCC reporter bioassay (Promega G7010, luciferase; A431 target cells; 0.2 nM – 13.3 nM antibody)",CD16a-ECD (human) [1],362 pM
bispecific hdFEB4-1-4×hNKE14-8 (from UniProt P01857),Kd,CD16a-ECD (human) [2]; bispecific antibody,16.5 nM
hNKE14-8 (from UniProt P01857),Kd,CD16a-ECD (human) [2],15.5 nM
